# Results published in patent US20220306710A1 (YEDA RESEARCH AND DEVELOPMENT, published 2022).
# Where no end group is shown, it is not given here.
# Key:
# [1] = biological target: T1, Tau2 peptide labelled with rhodamine (human, also: rhodamine isothiocyanate label, site not given here); test: dot blot of mixed labelled peptides on nitrocellulose
# T1 construct: also called Tau2R; Tau-2R
# T1 peptide: KPGGGQVEVKSEKLDFK
# Text: (§1) FIGS. 2A-B. Confirmation of APP and Tau peptide binding by visualization and ELISA. A) Visualization of APP and Tau peptide binding labelled by fluorescein (F) or rhodamine (R). Single labelled peptides were loaded on nitrocellulose membrane [upper row (F) and middle row (R)]. Mixtures were loaded (lower row) from left to right: APP1F+Tau1R, APP1F+Tau2R, APP2F+Tau1R and APP2F+Tau2R. Last sample was a control of APP2F+APP1R. […] B) Peptide inhibition of Tau and APP protein binding. An ELISA plate was coated with Tau protein overnight (ON) at 4° C. PBS, single peptides or their combinations were incubated ON at 4° C. as well. Next day, the plate was washed and blocked with PBS+3% BSA for two hours at RT. The plate was washed again with PBS. Single peptides or their combinations were added to the coated plate for four hours at RT. The plate was washed and APP protein was added to all wells for ON incubation at 4° C. The plate was then washed and anti Aß was added, to test the ability of the different peptides to affect APP protein binding to the Tau coated plate. The plate was developed with anti-mouse HRP (materials and methods section). Samples were in triplicates. Significance labelled as p≤0.05*, p≤0.008**.
# (§2) All four candidate peptides were labelled with fluorescein. APP1, Tau1 and Tau2 were also labelled with rhodamine for visualization of peptide binding.
# [2] = biological target: T2, Tau1 peptide labelled with rhodamine (human, also: rhodamine isothiocyanate label, site not given here); test: as above
# T2 construct: also called Tau1R; Tau-1R
# T2 peptide: GLGDRKDQGGYTMHQD
# Text: as §1, §2
Binder,binding result [1],binding result [2]
"HFQKAKERLEAKHRERMSQVMRE (also: fluorescein isothiocyanate label, site not given here, also called APP1F; App1F) [APP1 peptide labelled with fluorescein]",binds,binds
"ATVIVITLVMLKKKQYTS (also: fluorescein isothiocyanate label, site not given here, also called APP2F) [APP2 peptide labelled with fluorescein]",no binding,no binding
